Reference: the supplement of paper PMC9732359
± gives the uncertainty stated by the source.

Assay: protein stability index of a GFP-peptide fusion (yeast GPS) (PSI 1-4); higher = more stable; sorted into four equal gates, so the index is relative within each strain
How it was run: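 Plasmids isolated from each sorting gate were PCR-amplified and Illumina-sequenced, and barcodes assigned the reads to strains. The gates, four of equal size, were set by GFP/Cherry fluorescence ratio on mid-log cultures in leucine-free medium. These cultures were yeast carrying a pooled library of tiled 17-residue yeast protein peptides fused downstream of GFP on a plasmid that also expresses Cherry. The protein stability index is the sum of every gate's read frequency times its gate number.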

## SVLSSKPGSKPEKTSTE [SIR3]
doa10∆
  protein stability index: 3.17 ± 0.12
pdr5∆
  protein stability index: 2.7 ± 0.19
san1∆
  protein stability index: 3.15 ± 0.078
ubr1∆
  protein stability index: 3.2 ± 0.12

## RSCVSNSNENGTLERIK [RPN4]
doa10∆
  protein stability index: 2.98 ± 0.07
pdr5∆
  protein stability index: 3.07 ± 0.077
san1∆
  protein stability index: 2.54 ± 0.065
ubr1∆
  protein stability index: 2.95 ± 0.057

## NILTTHLSHPGTNKDMI [ECM29]
doa10∆
  protein stability index: 2.61 ± 0.073
pdr5∆
  protein stability index: 2.2 ± 0.067
san1∆
  protein stability index: 2.15 ± 0.09
ubr1∆
  protein stability index: 2.05 ± 0.044

## TEALLLEHDVEYRPFSK [DIS3]
doa10∆
  protein stability index: 3.18 ± 0.095
pdr5∆
  protein stability index: 3.08 ± 0.085
san1∆
  protein stability index: 3.17 ± 0.08
ubr1∆
  protein stability index: 3.3 ± 0.082

## HNGRDKIQFHIHFADVA [RGR1]
doa10∆
  protein stability index: 1.68 ± 0.051
pdr5∆
  protein stability index: 1.79 ± 0.049
san1∆
  protein stability index: 1.43 ± 0.079
ubr1∆
  protein stability index: 1.84 ± 0.043

## AQYFYSGAYSYPDFRHY [DIS3]
doa10∆
  protein stability index: 1.43 ± 0.056
pdr5∆
  protein stability index: 1.43 ± 0.09
san1∆
  protein stability index: 1.87 ± 0.16
ubr1∆
  protein stability index: 1.56 ± 0.081

## NYEIVFDTVSNKLFTEP [YMR129W/POM152]
doa10∆
  protein stability index: 2.97 ± 0.055
pdr5∆
  protein stability index: 3.02 ± 0.06
san1∆
  protein stability index: 2.88 ± 0.055
ubr1∆
  protein stability index: 3.03 ± 0.032

## ASFNDTFVHVTDLSGKE [RPS14A]
doa10∆
  protein stability index: 2.17 ± 0.097
pdr5∆
  protein stability index: 1.36 ± 0.093
san1∆
  protein stability index: 1.76 ± 0.22
ubr1∆
  protein stability index: 1.15 ± 0.082

## ELKDICSFAVTKSSLND [YML103C/NUP188]
doa10∆
  protein stability index: 2.87 ± 0.072
pdr5∆
  protein stability index: 2.96 ± 0.065
san1∆
  protein stability index: 2.89 ± 0.072
ubr1∆
  protein stability index: 3.02 ± 0.05

## EAAFRNIKTIAETLAEE [RPS5]
doa10∆
  protein stability index: 2.79 ± 0.084
pdr5∆
  protein stability index: 3.28 ± 0.076
san1∆
  protein stability index: 3.25 ± 0.053
ubr1∆
  protein stability index: 2.84 ± 0.046

## EHGMNAPSVPEFIYLTK [SNF2]
doa10∆
  protein stability index: 3.21 ± 0.092
pdr5∆
  protein stability index: 3.28 ± 0.077
san1∆
  protein stability index: 2.91 ± 0.069
ubr1∆
  protein stability index: 3.15 ± 0.059

## ASSGPRYIVGVRNSVDR [RPT4]
doa10∆
  protein stability index: 1.29 ± 0.12
pdr5∆
  protein stability index: 1.42 ± 0.19
ubr1∆
  protein stability index: 1.37 ± 0.092

## AENQTGESTVESEKLVT [RPC82]
doa10∆
  protein stability index: 3.17 ± 0.089
pdr5∆
  protein stability index: 3.29 ± 0.11
san1∆
  protein stability index: 3.15 ± 0.11
ubr1∆
  protein stability index: 3.45 ± 0.29

## SKLLREHGYQSRGFEVM [RPB2]
doa10∆
  protein stability index: 3.14 ± 0.13
pdr5∆
  protein stability index: 2.71 ± 0.16
san1∆
  protein stability index: 2.9 ± 0.14
ubr1∆
  protein stability index: 2.61 ± 0.19

## ITKLNKEIRAFDKLLNI [SRB4]
doa10∆
  protein stability index: 3.41 ± 0.098
pdr5∆
  protein stability index: 3.44 ± 0.088
san1∆
  protein stability index: 3.36 ± 0.077
ubr1∆
  protein stability index: 3.15 ± 0.12

## SKQNGIEQSITKNIPIT [SSN8]
doa10∆
  protein stability index: 2.63 ± 0.082
pdr5∆
  protein stability index: 2.67 ± 0.069
san1∆
  protein stability index: 2.66 ± 0.079
ubr1∆
  protein stability index: 2.84 ± 0.068

## TQKTELEIDNKDSVTEC [SIR4]
doa10∆
  protein stability index: 1.74 ± 0.061
pdr5∆
  protein stability index: 3.15 ± 0.12
san1∆
  protein stability index: 2.78 ± 0.14
ubr1∆
  protein stability index: 2.5 ± 0.085

## KMPGGFTITVARKYLQT [FAS2]
doa10∆
  protein stability index: 1.24 ± 0.039
pdr5∆
  protein stability index: 1.47 ± 0.065
san1∆
  protein stability index: 1.21 ± 0.084
ubr1∆
  protein stability index: 1.27 ± 0.052

## LSIAIVGKDTPFTIYDG [PRE5]
doa10∆
  protein stability index: 2.87 ± 0.066
pdr5∆
  protein stability index: 2.94 ± 0.054
san1∆
  protein stability index: 2.78 ± 0.08
ubr1∆
  protein stability index: 3.07 ± 0.047

## AVGNLGNAVTVTEDGTV [RPL22A]
doa10∆
  protein stability index: 1.46 ± 0.062
pdr5∆
  protein stability index: 1.96 ± 0.094
san1∆
  protein stability index: 2.22 ± 0.095
ubr1∆
  protein stability index: 1.99 ± 0.094

## VKSLLSEEKIRDYSKEI [SIR4]
doa10∆
  protein stability index: 3.14 ± 0.3
pdr5∆
  protein stability index: 2.48 ± 0.14
san1∆
  protein stability index: 2.46 ± 0.14

## QRDAEISQPKSMSGRIS [BRR2]
doa10∆
  protein stability index: 3.22 ± 0.058
pdr5∆
  protein stability index: 3.3 ± 0.055
san1∆
  protein stability index: 3.23 ± 0.062
ubr1∆
  protein stability index: 3.18 ± 0.051

## MQPFDSGHDDLVHDVVY [YGL100W/SEH1]
doa10∆
  protein stability index: 3.23 ± 0.1
pdr5∆
  protein stability index: 3.43 ± 0.11
san1∆
  protein stability index: 3.13 ± 0.084
ubr1∆
  protein stability index: 3.26 ± 0.093

## LSIRLTNQLKSLKGLQS [RPN8]
doa10∆
  protein stability index: 1.48 ± 0.17
pdr5∆
  protein stability index: 1.49 ± 0.16
san1∆
  protein stability index: 2.62 ± 0.19
ubr1∆
  protein stability index: 1.24 ± 0.079

## TVTIASSLNLEDTPAND [RPB8]
doa10∆
  protein stability index: 2.83 ± 0.066
pdr5∆
  protein stability index: 2.81 ± 0.054
san1∆
  protein stability index: 2.65 ± 0.06
ubr1∆
  protein stability index: 2.88 ± 0.067

## TNPKLKSEFDDLSLNIH [YMR129W/POM152]
doa10∆
  protein stability index: 2.96 ± 0.071
pdr5∆
  protein stability index: 3.14 ± 0.056
san1∆
  protein stability index: 3.02 ± 0.038
ubr1∆
  protein stability index: 3.17 ± 0.05

## HVVTREKGPQVCAKLFG [RPO21]
doa10∆
  protein stability index: 3.24 ± 0.082
pdr5∆
  protein stability index: 2.81 ± 0.079
san1∆
  protein stability index: 2.95 ± 0.097
ubr1∆
  protein stability index: 3.08 ± 0.1

## RFKYAPGTIVLYAERVQ [RPS3]
doa10∆
  protein stability index: 1.61 ± 0.072
pdr5∆
  protein stability index: 1.65 ± 0.062
san1∆
  protein stability index: 1.56 ± 0.1
ubr1∆
  protein stability index: 1.84 ± 0.093

## TDLSGKETIARVTGGMK [RPS14A]
doa10∆
  protein stability index: 3.06 ± 0.087
pdr5∆
  protein stability index: 3.12 ± 0.082
san1∆
  protein stability index: 2.79 ± 0.056
ubr1∆
  protein stability index: 2.92 ± 0.061

## SKSMKFSRRFDCRDVYC [CSN9]
doa10∆
  protein stability index: 2.7 ± 0.07
pdr5∆
  protein stability index: 2.64 ± 0.09
san1∆
  protein stability index: 2.58 ± 0.088
ubr1∆
  protein stability index: 2.66 ± 0.051

## EVNSLLLQVNKTFCEDP [GRR1]
doa10∆
  protein stability index: 3.27 ± 0.099
pdr5∆
  protein stability index: 3.34 ± 0.066
san1∆
  protein stability index: 3.22 ± 0.054
ubr1∆
  protein stability index: 3.24 ± 0.044

## NTGLLNKANIQALIHGL [RPN11]
doa10∆
  protein stability index: 3.02 ± 0.14
pdr5∆
  protein stability index: 2.88 ± 0.15
san1∆
  protein stability index: 2.09 ± 0.28
ubr1∆
  protein stability index: 2.67 ± 0.16

## VSPTVGKLFSDIKVLKR [YIL149C/MLP2]
doa10∆
  protein stability index: 2.96 ± 0.08
pdr5∆
  protein stability index: 3.29 ± 0.077
san1∆
  protein stability index: 3.11 ± 0.06
ubr1∆
  protein stability index: 3.17 ± 0.039

## PDGVVVHRDDPALVGKL [SNF6]
doa10∆
  protein stability index: 3.3 ± 0.071
pdr5∆
  protein stability index: 3.49 ± 0.071
san1∆
  protein stability index: 3.36 ± 0.054
ubr1∆
  protein stability index: 3.33 ± 0.053

## RSKSSHKNERRVLEIQT [SKI6]
doa10∆
  protein stability index: 3.22 ± 0.097
pdr5∆
  protein stability index: 3.35 ± 0.087
san1∆
  protein stability index: 3.23 ± 0.084
ubr1∆
  protein stability index: 3.37 ± 0.061

## SLKLENSDLEGKIRGVE [SMC2]
doa10∆
  protein stability index: 3.23 ± 0.086
pdr5∆
  protein stability index: 3.37 ± 0.064
san1∆
  protein stability index: 3.37 ± 0.061
ubr1∆
  protein stability index: 3.21 ± 0.05

## CNALIHIKFSAGTEANA [SRB4]
doa10∆
  protein stability index: 1.96 ± 0.05
pdr5∆
  protein stability index: 2.31 ± 0.039
san1∆
  protein stability index: 2.19 ± 0.054
ubr1∆
  protein stability index: 2.33 ± 0.034

## HVESDKITAKTQHEEEE [IRR1]
doa10∆
  protein stability index: 2.85 ± 0.064
pdr5∆
  protein stability index: 2.96 ± 0.088
san1∆
  protein stability index: 3.09 ± 0.092
ubr1∆
  protein stability index: 2.81 ± 0.11

## KSKAEELTQVPSARQKY [UBP6]
doa10∆
  protein stability index: 2.19 ± 0.14
pdr5∆
  protein stability index: 2.81 ± 0.12
san1∆
  protein stability index: 2.38 ± 0.14
ubr1∆
  protein stability index: 2.37 ± 0.16

## HTGKKLMAQIFFGPTYY [RPB2]
doa10∆
  protein stability index: 2.64 ± 0.055
pdr5∆
  protein stability index: 2.07 ± 0.043
san1∆
  protein stability index: 1.97 ± 0.057
ubr1∆
  protein stability index: 1.81 ± 0.029

## EKLLRHVDSLIEDFVDG [SRB7]
doa10∆
  protein stability index: 3.2 ± 0.08
pdr5∆
  protein stability index: 3.2 ± 0.083
san1∆
  protein stability index: 3.22 ± 0.061
ubr1∆
  protein stability index: 3.24 ± 0.057

## NLEKNYLAKLSKQLSLE [IRR1]
doa10∆
  protein stability index: 3.19 ± 0.14
pdr5∆
  protein stability index: 3.34 ± 0.12
san1∆
  protein stability index: 2.55 ± 0.13
ubr1∆
  protein stability index: 3.14 ± 0.084

## PNELSQILTVDPKTSLR [RPC82]
doa10∆
  protein stability index: 2.2 ± 0.069
pdr5∆
  protein stability index: 1.91 ± 0.059
san1∆
  protein stability index: 2.33 ± 0.067
ubr1∆
  protein stability index: 2.45 ± 0.053

## WIAMRREKRDRTHFKRM [PRP8]
doa10∆
  protein stability index: 1.99 ± 0.079
pdr5∆
  protein stability index: 2.54 ± 0.078
san1∆
  protein stability index: 2.04 ± 0.2
ubr1∆
  protein stability index: 1.93 ± 0.065

## EVLQGLLQGGAKVVVTT [FAS2]
doa10∆
  protein stability index: 3.22 ± 0.092
pdr5∆
  protein stability index: 2.91 ± 0.076
san1∆
  protein stability index: 2.29 ± 0.076
ubr1∆
  protein stability index: 1.61 ± 0.088

## KVLTALSRLQKSGRING [SMC4]
pdr5∆
  protein stability index: 3.43 ± 0.2
san1∆
  protein stability index: 3.29 ± 0.083
ubr1∆
  protein stability index: 3.43 ± 0.19

## MASGSTTFTKVAAKWNT [PRP8]
doa10∆
  protein stability index: 2.58 ± 0.072
pdr5∆
  protein stability index: 2.52 ± 0.069
san1∆
  protein stability index: 2.51 ± 0.084
ubr1∆
  protein stability index: 2.93 ± 0.07

## ESDSKATLQSNEPTQKD [DSN1]
doa10∆
  protein stability index: 2.81 ± 0.12
pdr5∆
  protein stability index: 2.94 ± 0.14
san1∆
  protein stability index: 2.99 ± 0.071
ubr1∆
  protein stability index: 3.02 ± 0.086

## IDGKVIQAGKFDNKSTS [SNF2]
doa10∆
  protein stability index: 1.36 ± 0.057
pdr5∆
  protein stability index: 1.42 ± 0.064
san1∆
  protein stability index: 1.9 ± 0.21
ubr1∆
  protein stability index: 1.95 ± 0.089

## KILPTDIQLKNLFPLKP [SRP68]
doa10∆
  protein stability index: 2.41 ± 0.059
pdr5∆
  protein stability index: 2.63 ± 0.046
san1∆
  protein stability index: 2.55 ± 0.043
ubr1∆
  protein stability index: 2.53 ± 0.059

## ALSGLYYKNFHNSVKRY [SNM1]
doa10∆
  protein stability index: 1.59 ± 0.27
san1∆
  protein stability index: 1.17 ± 0.17
ubr1∆
  protein stability index: 1.22 ± 0.093
